From patent publication US20230218738A1 (Pfizer, published 2023)

Assays:
Assay in all cases: BLI (Octet), F on anti-HIS tip, 20 nM mAb
[1] = target: RSV F protein mutant pXCS758 (RSV A2, UniProt P03420 26-109)
[2] = target: RSV F protein mutant pXCS787 (RSV A2, UniProt P03420 26-109)
[3] = target: RSV F protein mutant pXCS754 (RSV A2, UniProt P03420 26-109)
[4] = target: T1, RSV F protein mutant pXCS886 (RSV A2, UniProt P03420 26-109)
T1 chain 1: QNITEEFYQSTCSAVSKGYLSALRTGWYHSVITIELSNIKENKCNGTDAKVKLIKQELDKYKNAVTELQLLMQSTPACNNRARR
T1 chain 2: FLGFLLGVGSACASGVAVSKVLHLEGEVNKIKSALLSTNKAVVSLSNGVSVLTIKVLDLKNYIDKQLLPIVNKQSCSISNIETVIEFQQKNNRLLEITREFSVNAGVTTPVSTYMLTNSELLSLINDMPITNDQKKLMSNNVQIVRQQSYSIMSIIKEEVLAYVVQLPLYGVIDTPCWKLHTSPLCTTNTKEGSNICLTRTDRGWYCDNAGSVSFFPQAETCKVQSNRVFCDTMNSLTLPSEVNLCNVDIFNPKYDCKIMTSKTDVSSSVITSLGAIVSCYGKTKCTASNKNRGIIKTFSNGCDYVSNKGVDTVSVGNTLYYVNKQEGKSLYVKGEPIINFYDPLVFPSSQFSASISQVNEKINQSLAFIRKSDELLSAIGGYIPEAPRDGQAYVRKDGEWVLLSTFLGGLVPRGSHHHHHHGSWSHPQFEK

[5] = target: T2, RSV F protein mutant pXCS842 (RSV A2, UniProt P03420 26-109)
T2 chain 1: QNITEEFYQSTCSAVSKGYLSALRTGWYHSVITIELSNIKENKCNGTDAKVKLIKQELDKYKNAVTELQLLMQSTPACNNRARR
T2 chain 2: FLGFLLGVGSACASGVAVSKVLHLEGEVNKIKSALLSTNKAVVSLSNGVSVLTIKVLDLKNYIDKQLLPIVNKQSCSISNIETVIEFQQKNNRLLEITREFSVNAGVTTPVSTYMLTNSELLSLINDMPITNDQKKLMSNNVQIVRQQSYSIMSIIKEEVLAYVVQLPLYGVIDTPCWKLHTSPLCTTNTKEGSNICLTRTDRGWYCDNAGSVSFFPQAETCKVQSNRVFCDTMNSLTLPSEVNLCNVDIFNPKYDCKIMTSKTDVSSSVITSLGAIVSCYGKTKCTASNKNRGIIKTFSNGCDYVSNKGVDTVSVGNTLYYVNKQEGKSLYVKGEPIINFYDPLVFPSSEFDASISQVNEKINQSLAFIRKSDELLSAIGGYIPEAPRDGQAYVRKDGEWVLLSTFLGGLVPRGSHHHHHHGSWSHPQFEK

[6] = target: RSV F protein mutant pXCS782 (RSV A2, UniProt P03420 26-109)
[7] = target: T3, RSV F protein mutant pXCS845 (RSV A2, UniProt P03420 26-109)
T3 chain 1: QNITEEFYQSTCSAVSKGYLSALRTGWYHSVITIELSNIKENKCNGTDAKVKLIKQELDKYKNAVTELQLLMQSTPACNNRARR
T3 chain 2: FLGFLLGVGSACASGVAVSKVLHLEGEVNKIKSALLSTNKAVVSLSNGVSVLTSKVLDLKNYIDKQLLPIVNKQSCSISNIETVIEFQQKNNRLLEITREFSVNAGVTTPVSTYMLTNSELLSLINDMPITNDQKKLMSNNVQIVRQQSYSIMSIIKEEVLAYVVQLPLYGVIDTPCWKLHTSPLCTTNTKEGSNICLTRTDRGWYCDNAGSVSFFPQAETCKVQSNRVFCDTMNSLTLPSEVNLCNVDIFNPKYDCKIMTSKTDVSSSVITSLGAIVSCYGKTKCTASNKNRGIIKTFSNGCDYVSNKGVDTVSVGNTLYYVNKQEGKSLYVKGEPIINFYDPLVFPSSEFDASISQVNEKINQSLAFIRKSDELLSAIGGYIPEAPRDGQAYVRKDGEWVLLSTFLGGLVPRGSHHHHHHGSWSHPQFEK

[8] = target: T4, RSV F protein mutant pXCS734 (RSV A2, UniProt P03420 26-109)
T4 chain 1: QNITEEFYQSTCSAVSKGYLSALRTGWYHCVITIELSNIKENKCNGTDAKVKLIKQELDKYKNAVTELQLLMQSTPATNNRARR
T4 chain 2: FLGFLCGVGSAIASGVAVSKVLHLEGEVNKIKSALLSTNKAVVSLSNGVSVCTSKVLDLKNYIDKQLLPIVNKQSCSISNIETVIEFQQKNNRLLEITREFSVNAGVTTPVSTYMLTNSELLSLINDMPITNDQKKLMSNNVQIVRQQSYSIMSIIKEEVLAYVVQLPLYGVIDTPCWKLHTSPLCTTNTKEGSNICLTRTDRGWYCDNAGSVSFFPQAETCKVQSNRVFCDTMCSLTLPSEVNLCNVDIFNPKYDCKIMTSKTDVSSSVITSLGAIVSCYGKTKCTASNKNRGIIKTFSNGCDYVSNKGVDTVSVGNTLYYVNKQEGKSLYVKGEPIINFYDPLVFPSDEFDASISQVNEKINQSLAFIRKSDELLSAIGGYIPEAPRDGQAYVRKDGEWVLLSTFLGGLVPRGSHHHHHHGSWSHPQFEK

[9] = target: T5, RSV F protein mutant pXCS880 (RSV A2, UniProt P03420 26-109)
T5 chain 1: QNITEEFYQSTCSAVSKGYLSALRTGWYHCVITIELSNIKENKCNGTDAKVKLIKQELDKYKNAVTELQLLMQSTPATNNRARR
T5 chain 2: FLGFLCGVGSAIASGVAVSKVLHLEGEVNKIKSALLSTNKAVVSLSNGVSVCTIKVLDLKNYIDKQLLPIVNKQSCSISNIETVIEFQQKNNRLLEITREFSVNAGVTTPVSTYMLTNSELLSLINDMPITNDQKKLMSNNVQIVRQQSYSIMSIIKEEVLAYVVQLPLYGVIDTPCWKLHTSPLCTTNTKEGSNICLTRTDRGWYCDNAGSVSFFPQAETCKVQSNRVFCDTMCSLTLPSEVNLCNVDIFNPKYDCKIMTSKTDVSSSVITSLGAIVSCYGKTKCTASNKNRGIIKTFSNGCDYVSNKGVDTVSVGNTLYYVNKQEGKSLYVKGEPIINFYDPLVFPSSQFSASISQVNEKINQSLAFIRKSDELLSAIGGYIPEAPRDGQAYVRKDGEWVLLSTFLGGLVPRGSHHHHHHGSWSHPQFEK

B1: AM22 (antibody, V domains shown)
VH: QVQLVQSGAEVKKPGATVKVSCKISGHTLIKLSIHWVRQAPGKGLEWMGGYEGEVDEIFYAQKFQHRLTVIADTATDTVYMELGRLTSDDTAVYFCGTLGVTVTEAGLGIDDYWGQGTLVTVSS
VL: EIVLTQSPGTLSLSPGERATLSCRASQIVSRNHLAWYQQKPGQAPRLLIFGASSRATGIPVRFSGSGSGTDFTLTINGLAPEDFAVYYCLSSDSSIFTFGPGTKVDFK
**Q.** Which “Response (nm shift)” value [1] does the source give for B1 here?
**A.** 0.273 nm

**Q.** And the “Response (nm shift)” value [2]?
**A.** 0.225 nm

**Q.** What about the “Response (nm shift)” value [3] of the same binder?
**A.** 0.298 nm

**Q.** And the “Response (nm shift)” value [4]?
**A.** 0.443 nm

**Q.** What about the “Response (nm shift)” value [5] of the same binder?
**A.** 0.493 nm

**Q.** And the “Response (nm shift)” value [6]?
**A.** 0.222 nm

**Q.** What about the “Response (nm shift)” value [7] of the same binder?
**A.** 0.314 nm

**Q.** And the “Response (nm shift)” value [8]?
**A.** 0.284 nm

**Q.** What about the “Response (nm shift)” value [9] of the same binder?
**A.** 0.213 nm

B2: MPE8 (antibody, V domains shown)
VH: EVQLVESGGGLVKPGGSLRLSCAASGFTFSSYSMNWVRQAPGKGLEWVSSISASSSYSDYADSAKGRFTISRDNAKTSLFLQMNSLRAEDTAIYFCARARATGYSSITPYFDIWGQGTLVTVSS
VL: QSVVTQTPSVSGAPGQRVTISCTGSSSNIGAGYDVHWYQQLPGTAPKLLIYDNNNRPSGVPDRFSASKSGTSASLAITGLQAEDEADYYCQSYDRNLSGVFGTGTKVTVL
notes: also called MPEG
**Q.** What does the source list for B2?
**A.** Response (nm shift) [1]: 0.816 nm; Response (nm shift) [2]: 0.621 nm; Response (nm shift) [3]: 0.676 nm; Response (nm shift) [4]: 0.863 nm; Response (nm shift) [5]: 0.932 nm; Response (nm shift) [6]: 0.513 nm; Response (nm shift) [7]: 0.699 nm; Response (nm shift) [8]: 0.818 nm; Response (nm shift) [9]: 0.684 nm
